In patent US20200317768A1 (published 2020):

T1: human FcγRIIaH extracellular domain, C-terminal His-tag (human, UniProt P12318 34-217)
T1 construct: also called human FcγRIIa (type H); FcgRIIaH; not shown: His-tag added to the C-terminus
T1 sequence: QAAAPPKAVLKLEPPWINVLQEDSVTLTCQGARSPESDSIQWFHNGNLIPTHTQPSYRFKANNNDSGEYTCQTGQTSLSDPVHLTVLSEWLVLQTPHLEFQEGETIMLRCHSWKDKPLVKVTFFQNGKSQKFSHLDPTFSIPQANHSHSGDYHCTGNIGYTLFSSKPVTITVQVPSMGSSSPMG

T2: human FcγRIIaR extracellular domain, C-terminal His-tag (human, UniProt P12318 34-217)
T2 construct: also called human FcγRIIa (type R); FcgRIIaR; not shown: His-tag added to the C-terminus
T2 chain: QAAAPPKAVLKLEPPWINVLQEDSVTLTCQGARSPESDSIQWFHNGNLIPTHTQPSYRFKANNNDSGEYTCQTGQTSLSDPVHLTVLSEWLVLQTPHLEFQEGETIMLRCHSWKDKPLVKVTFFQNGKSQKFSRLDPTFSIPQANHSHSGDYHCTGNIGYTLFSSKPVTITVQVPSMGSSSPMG

T3: human FcγRIIb extracellular domain, C-terminal His-tag (human, UniProt P31994 43-217)
T3 construct: also called FcgRIIb; not shown: His-tag added to the C-terminus
T3 sequence: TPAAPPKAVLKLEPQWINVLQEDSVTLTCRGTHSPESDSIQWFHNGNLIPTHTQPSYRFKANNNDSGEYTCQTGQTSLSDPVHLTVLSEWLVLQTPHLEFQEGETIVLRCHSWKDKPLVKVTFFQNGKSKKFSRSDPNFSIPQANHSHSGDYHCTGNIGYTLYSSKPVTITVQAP


Legend:
[1] = target: T1, human FcγRIIaH extracellular domain, …; test: SPR; KD of SG1 divided by KD of variant;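 also: relative to parent M103205H795-SG1 carrying the SG1 human heavy chain constant region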
Protocol: (§1) The kinetic analysis of interactions between these antibodies and FcγR was carried out using BIACORE® T200 or BIACORE® 4000 (GE Healthcare). HBS-EP+ (GE Healthcare) was used as the running buffer, and the measurement temperature was set to 25° C. A chip produced by immobilizing Protein A. Protein A/G or mouse anti-human IgG kappa light chain (BD Biosciences) onto a Series S Sensor Chip CM4 or CM5 (GE Healthcare) by the amine-coupling method was used. […] After the measurement, the antibody captured on the chip was washed off by allowing reaction with 10 mM glycine-HCl, pH1.5 and 25 mM NaOH so that the chip was regenerated and used repeatedly. The sensorgrams obtained as measurement results were analyzed by the 1:1 Langmuir binding model using the BIACORE® Evaluation Software to calculate the binding rate constant ka (L/mol/s) and dissociation rate constant kd (l/s), and the dissociation constant KD (mol/L) was calculated from these values. […] Regarding such interactions, KD values were calculated using the following 1:1 binding model described in BIACORE® T100 Software Handbook BR1006-48 Edition AE.
(§2) Human FcγRIIb-enhanced Fc variants with anti-myostatin variable region were constructed and their affinity for human FcγRs was evaluated. […] In addition, substitutions (Q311R/D413K or […]) were also introduced. The variants were expressed using M103202L1045-SK1 as light chain and their affinity to human FcγRs was analyzed according to the method shown in Example 34.

[2] = target: T2, human FcγRIIaR extracellular domain, …; test: SPR; KD of SG1 divided by KD of variant;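 also: relative to parent M103205H795-SG1 carrying the SG1 human heavy chain constant region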
Protocol: as §1, §2

[3] = target: T3, human FcγRIIb extracellular domain, …; test: SPR; KD of SG1 divided by KD of variant;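 also: relative to parent M103205H795-SG1 carrying the SG1 human heavy chain constant region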
Protocol: as §1, §2

[4] = target: T4, human FcγRIIIaV extracellular domain, C-terminal His-tag (human, UniProt P08637 17-208); test: SPR; KD of SG1 divided by KD of variant;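 also: relative to parent M103205H795-SG1 carrying the SG1 human heavy chain constant region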
T4 construct: also called FcgRIIIaV; not shown: His-tag added to the C-terminus
T4 sequence (P08637 17-208 F176V): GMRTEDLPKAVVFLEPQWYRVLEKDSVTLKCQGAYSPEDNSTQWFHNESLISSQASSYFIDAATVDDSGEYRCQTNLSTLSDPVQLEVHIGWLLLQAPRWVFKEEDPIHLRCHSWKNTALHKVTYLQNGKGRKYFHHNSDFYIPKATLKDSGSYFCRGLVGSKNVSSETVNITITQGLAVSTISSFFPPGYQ
Protocol: as §1, §2

[5] = target: T1, human FcγRIIaH extracellular domain, …; test: SPR (BIACORE), antibody captured, soluble FcgR as analyte, 25C
Protocol: as §1, §2

[6] = target: T2, human FcγRIIaR extracellular domain, …; test: as above
Protocol: as §1, §2

[7] = target: T3, human FcγRIIb extracellular domain, …; test: as above
Protocol: as §1, §2

[8] = target: T4, human FcγRIIIaV extracellular domain, …; test: as above
Protocol: as §1, §2

Binder | KD fold (SG1 = 1) [1] [fold] | KD fold (SG1 = 1) [2] [fold] | KD fold (SG1 = 1) [3] [fold] | KD fold (SG1 = 1) [4] [fold] | Kd [5] [µM] | Kd [6] [µM] | Kd [7] [µM] | Kd [8] [µM]
MS103240H795-TT11/M103202L1045-SK1 (antibody, human IgG1, kappa, CH = SG1 with L234Y/P238D/T250V/T307P/A330K (EU numbering)) heavy: QVQLVESGGGLVQPGGSLRLSCAVSGIDLSHDDISWVRQAPGKGLEWVSIISYAGSTYYASWAKGRLTISKDTSKNQVVLTMTNMDPVDTATYYCARGVPAYSHGGDLWGQGTLVTVSSASTKGPSVFPLAPSSKSTSGGTAALGCLVKDYFPEPVTVSWNSGALTSGVHTFPAVLQSSGLYSLSSVVTVPSSSLGTQTYICNVNHKPSNTKVDKKVEPKSCDKTHTCPPCPAPEYLGGDSVFLFPPKPKDVLMISRTPEVTCVVVDVSHEDPEVKFNWYVDGVEVHNAKTKPREEQYNSTYRVVSVLPVLHQDWLNGKEYKCKVSNKALPKPIEKTISKAKGQPREPQVYTLPPSREEMTKNQVSLTCLVKGFYPSDIAVEWESNGQPENNYKTTPPVLDSDGSFFLYSKLTVDKSRWQQGNVFSCSVMHEALHNHYTQKSLSLSP light: DIVMTQSPATLSLSPGERATLSCTTSQSVYHENWLSWFQQKPGQPPKLLIYWASTLAYGVPSRFSGSGSGTDFTLTISSLQPEDAATYYCAGGYGGGRYAFGQGTKVEIKRTVAAPSVFIFPPSDEQLKSGTASVVCLLNNFYPREAKVQWKVDNALQSGNSQESVTEQDSKDSTYSLSSTLTLSKADYEKHKVYACEVTHQGLSSPVTKSFNRGEC | 0.031 | 0.11 | 11.2 | 0.005 | 24 | 10 | 0.52 | 170
MS103240H795-TT13/M103202L1045-SK1 (antibody, human IgG1, kappa, CH = SG1 with P238D/T250V/V264I/S267A/T307P/A330K (EU numbering)) heavy: QVQLVESGGGLVQPGGSLRLSCAVSGIDLSHDDISWVRQAPGKGLEWVSIISYAGSTYYASWAKGRLTISKDTSKNQVVLTMTNMDPVDTATYYCARGVPAYSHGGDLWGQGTLVTVSSASTKGPSVFPLAPSSKSTSGGTAALGCLVKDYFPEPVTVSWNSGALTSGVHTFPAVLQSSGLYSLSSVVTVPSSSLGTQTYICNVNHKPSNTKVDKKVEPKSCDKTHTCPPCPAPELLGGDSVFLFPPKPKDVLMISRTPEVTCVVIDVAHEDPEVKFNWYVDGVEVHNAKTKPREEQYNSTYRVVSVLPVLHQDWLNGKEYKCKVSNKALPKPIEKTISKAKGQPREPQVYTLPPSREEMTKNQVSLTCLVKGFYPSDIAVEWESNGQPENNYKTTPPVLDSDGSFFLYSKLTVDKSRWQQGNVFSCSVMHEALHNHYTQKSLSLSP light: DIVMTQSPATLSLSPGERATLSCTTSQSVYHENWLSWFQQKPGQPPKLLIYWASTLAYGVPSRFSGSGSGTDFTLTISSLQPEDAATYYCAGGYGGGRYAFGQGTKVEIKRTVAAPSVFIFPPSDEQLKSGTASVVCLLNNFYPREAKVQWKVDNALQSGNSQESVTEQDSKDSTYSLSSTLTLSKADYEKHKVYACEVTHQGLSSPVTKSFNRGEC | 0.017 | 0.11 | 18.1 | 0.006 | 45 | 9.8 | 0.32 | 140
MS103240H795-TT12/M103202L1045-SK1 (antibody, human IgG1, kappa, CH = SG1 with L234Y/P238D/T250V/S267A/T307P/A330K (EU numbering)) heavy: QVQLVESGGGLVQPGGSLRLSCAVSGIDLSHDDISWVRQAPGKGLEWVSIISYAGSTYYASWAKGRLTISKDTSKNQVVLTMTNMDPVDTATYYCARGVPAYSHGGDLWGQGTLVTVSSASTKGPSVFPLAPSSKSTSGGTAALGCLVKDYFPEPVTVSWNSGALTSGVHTFPAVLQSSGLYSLSSVVTVPSSSLGTQTYICNVNHKPSNTKVDKKVEPKSCDKTHTCPPCPAPEYLGGDSVFLFPPKPKDVLMISRTPEVTCVVVDVAHEDPEVKFNWYVDGVEVHNAKTKPREEQYNSTYRVVSVLPVLHQDWLNGKEYKCKVSNKALPKPIEKTISKAKGQPREPQVYTLPPSREEMTKNQVSLTCLVKGFYPSDIAVEWESNGQPENNYKTTPPVLDSDGSFFLYSKLTVDKSRWQQGNVFSCSVMHEALHNHYTQKSLSLSP light: DIVMTQSPATLSLSPGERATLSCTTSQSVYHENWLSWFQQKPGQPPKLLIYWASTLAYGVPSRFSGSGSGTDFTLTISSLQPEDAATYYCAGGYGGGRYAFGQGTKVEIKRTVAAPSVFIFPPSDEQLKSGTASVVCLLNNFYPREAKVQWKVDNALQSGNSQESVTEQDSKDSTYSLSSTLTLSKADYEKHKVYACEVTHQGLSSPVTKSFNRGEC | 0.038 | 0.22 | 11.8 | 0.006 | 20 | 5 | 0.49 | 130

More lines, now with the values ahead:

KD fold (SG1 = 1) [1] [fold] | KD fold (SG1 = 1) [2] [fold] | KD fold (SG1 = 1) [3] [fold] | KD fold (SG1 = 1) [4] [fold] | Kd [5] [µM] | Kd [6] [µM] | Kd [7] [µM] | Kd [8] [µM] | Binder
0.026 | 0.18 | 23.2 | 0.006 | 29 | 6.1 | 0.25 | 130 | MS103240H795-TT15/M103202L1045-SK1 (antibody, human IgG1, kappa, CH = SG1 with L234Y/P238D/T250V/V264I/S267A/T307P/A330K (EU numbering)) heavy: QVQLVESGGGLVQPGGSLRLSCAVSGIDLSHDDISWVRQAPGKGLEWVSIISYAGSTYYASWAKGRLTISKDTSKNQVVLTMTNMDPVDTATYYCARGVPAYSHGGDLWGQGTLVTVSSASTKGPSVFPLAPSSKSTSGGTAALGCLVKDYFPEPVTVSWNSGALTSGVHTFPAVLQSSGLYSLSSVVTVPSSSLGTQTYICNVNHKPSNTKVDKKVEPKSCDKTHTCPPCPAPEYLGGDSVFLFPPKPKDVLMISRTPEVTCVVIDVAHEDPEVKFNWYVDGVEVHNAKTKPREEQYNSTYRVVSVLPVLHQDWLNGKEYKCKVSNKALPKPIEKTISKAKGQPREPQVYTLPPSREEMTKNQVSLTCLVKGFYPSDIAVEWESNGQPENNYKTTPPVLDSDGSFFLYSKLTVDKSRWQQGNVFSCSVMHEALHNHYTQKSLSLSP light: DIVMTQSPATLSLSPGERATLSCTTSQSVYHENWLSWFQQKPGQPPKLLIYWASTLAYGVPSRFSGSGSGTDFTLTISSLQPEDAATYYCAGGYGGGRYAFGQGTKVEIKRTVAAPSVFIFPPSDEQLKSGTASVVCLLNNFYPREAKVQWKVDNALQSGNSQESVTEQDSKDSTYSLSSTLTLSKADYEKHKVYACEVTHQGLSSPVTKSFNRGEC
0.042 | 0.14 | 30.5 | 0.005 | 18 | 7.6 | 0.19 | 150 | MS103240H795-TT14/M103202L1045-SK1 (antibody, human IgG1, kappa, CH = SG1 with L234Y/P238D/T250V/V264I/T307P/A330K (EU numbering)) heavy: QVQLVESGGGLVQPGGSLRLSCAVSGIDLSHDDISWVRQAPGKGLEWVSIISYAGSTYYASWAKGRLTISKDTSKNQVVLTMTNMDPVDTATYYCARGVPAYSHGGDLWGQGTLVTVSSASTKGPSVFPLAPSSKSTSGGTAALGCLVKDYFPEPVTVSWNSGALTSGVHTFPAVLQSSGLYSLSSVVTVPSSSLGTQTYICNVNHKPSNTKVDKKVEPKSCDKTHTCPPCPAPEYLGGDSVFLFPPKPKDVLMISRTPEVTCVVIDVSHEDPEVKFNWYVDGVEVHNAKTKPREEQYNSTYRVVSVLPVLHQDWLNGKEYKCKVSNKALPKPIEKTISKAKGQPREPQVYTLPPSREEMTKNQVSLTCLVKGFYPSDIAVEWESNGQPENNYKTTPPVLDSDGSFFLYSKLTVDKSRWQQGNVFSCSVMHEALHNHYTQKSLSLSP light: DIVMTQSPATLSLSPGERATLSCTTSQSVYHENWLSWFQQKPGQPPKLLIYWASTLAYGVPSRFSGSGSGTDFTLTISSLQPEDAATYYCAGGYGGGRYAFGQGTKVEIKRTVAAPSVFIFPPSDEQLKSGTASVVCLLNNFYPREAKVQWKVDNALQSGNSQESVTEQDSKDSTYSLSSTLTLSKADYEKHKVYACEVTHQGLSSPVTKSFNRGEC
